Key:
[1] = molecular target: BiP NBD (human BiP nucleotide binding domain, aa 26-405, from 6His-Smt3-BiP NBD) (human) (UniProt P11021); assay: MST
[2] = molecular target: BiP NBD (human BiP nucleotide binding domain, aa 26-405, from 6His-Smt3-BiP NBD) (human) (UniProt P11021); assay: SPR

UniProt P11021, sequence (P11021 26-405): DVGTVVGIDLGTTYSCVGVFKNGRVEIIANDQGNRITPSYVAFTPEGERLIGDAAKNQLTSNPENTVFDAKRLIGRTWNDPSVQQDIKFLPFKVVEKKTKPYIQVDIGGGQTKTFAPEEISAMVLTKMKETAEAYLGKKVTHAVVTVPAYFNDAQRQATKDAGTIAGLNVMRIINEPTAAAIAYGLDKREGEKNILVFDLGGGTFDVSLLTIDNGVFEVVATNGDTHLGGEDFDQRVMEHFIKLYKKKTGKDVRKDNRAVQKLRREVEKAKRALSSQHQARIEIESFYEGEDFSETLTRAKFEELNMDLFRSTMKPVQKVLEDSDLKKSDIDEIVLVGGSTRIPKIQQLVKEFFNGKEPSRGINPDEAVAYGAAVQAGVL

Row | Kd [1] [µM] | Kd [2] [µM] | Substance
1 | > 10 | – | CDNF V118Y-E137A double mutant purified from CHO cells (natural protein)
2 | – | 23.4 | FL-CDNF (aa 1-161) purified from E. coli (natural protein)
3 | > 10 | – | CDNF A134Q purified from CHO cells (natural protein)

Reference: publication doi:10.1101/2025.07.08.663636
